Laboratory results as given in patent US10588946B2, “Peptide for promoting bone formation or inhibiting bone resorption and use thereof” (SEOUL NATIONAL UNIVERSITY R&DB FOUNDATION, priority 2015, dated 2020).
“Also recorded” adds a separate entry of the source. Where no end group is shown, it is not given here.

What was measured:
[1] = test system: osteogenic cells; test: Adhesion inhibition assay (cell attachment to VnP-16 after preincubation); format: cell-based, human; settings: 5 mM EDTA, 500 μM MnCl2, 100 μg/mL heparin, 10 μg/mL blocking antibody; VnP-16 9.1 μg/cm^2, 1 hour
Experimental: Cells (5×10^4 cells/250 μL) were preincubated with 5 mM EDTA, 500 μM MnCl2, 100 μg/mL heparin, and 10 μg/mL function-blocking antibodies against integrin α1 (FB12), α2 (P1E6), α3 (P1B5), α4 (P4C2), α5 (P1D6), α6 (NKI-GoH3), β3 (B3A; Chemicon), av (AV1), β1 (6S6; Millipore), or β3 (B3A) subunits at 37° C. for 15 minutes. […] The attached cells were quantified as described in Example 6.

[2] = target: FAK (Homo sapiens, UniProt Q05397); settings: pretreated 1 hour; VnP-16 9.1 μg/cm^2
[3] = test system: osteoblast precursors and osteogenic cells
Experimental: SKP-derived mesenchymal cells (MSCs), mouse calvarial osteoblast precursors (MC3T3-E1), and human osteogenic cells (Osteogenic) were cultured on VnP-16 (9.1 μg/cm^2)-coated plates in osteogenic differentiation medium with or without PF-573228 (1 μM) for 2 weeks.
To visualize mineral deposits, cells were fixed with cold 95% ethanol for 30 minutes at −20° C. for 30 minutes and stained with 40 mM Alizarin red S solution (pH 4.2) for 1 hour. The stained cells were washed five times with DDW and rinsed with PBS for 15 minutes.

[4] = target: T1, β1 integrin (Homo sapiens, UniProt P05556); test: Pulldown assay with biotinylated VnP-16; format: binding; settings: human osteogenic cells and HOS cells, 3 hours; vs streptavidin beads alone
T1 construct: osteogenic cells that were transfected with a control (Con) siRNA (10 nM) or β1 integrin siRNA (10 nM); endogenous in cells; host or cells: human osteogenic cells differentiated from foreskin skin-derived precursors (SKPs)
Experimental: Pulldown assays were performed using a biotinylated VnP-16 peptide according to a known method (Bottcher, R. T., Bio protocol 3, e962 (2013)). […] Cells (3×10^6) were seeded onto 100 mm culture dishes coated with biotin-conjugated VnP-16 peptides, incubated for 3 hours, and washed twice with cold PBS. The cells were scraped with 500 μL lysis buffer (50 mM Tris-HCl, pH 7.5, 150 mM NaCl, 0.1% Na-deoxycholate, 1% Triton X-100, protease, and phosphatase inhibitor cocktail tablets) followed by passing the lysates 15 times through a 26.5-gauge needle and centrifuging at 17,000×g for 10 minutes at 4° C. The supernatants of the cell lysates were incubated with 60 μL of streptavidin-agarose beads (Thermo Fisher Scientific, Waltham, Mass.) and centrifuged at 1,500×g for 2 minutes at 4° C. After washing the beads four times with lysis buffer, the precipitated proteins were resolved by 8% SDS-PAGE and analyzed by immunoblotting.

[5] = test system: rat models with critical-size calvarial defects; test: Rat critical-size calvarial defect model; format: in vivo; settings: collagen sponge implant, two weeks after surgery
Experimental: For critical-size calvarial defects, 8-week-old male Sprague-Dawley rats (n=5 rats/group) were used. VnP-16 was dissolved in DDW and SP in DMSO (5 mg/mL) and then diluted with DDW. Absorbable collagen sponges (Bioland) were loaded with human recombinant BMP-2 (4 μg/cm^2, 15 μL volume; PeproTech), synthetic peptides (1 mg/cm^2 and 2 mg/cm^2, 15 μL volume), or vehicle (10 μL of DMSO and 5 μL of DDW). The surgical procedures for the creation of an 8 mm circular defect in the parietal bone and implantation of the collagen sponge were performed as described in the reference (Lee, J. H., et al., Biomaterials, 31, 3512 to 3519 (2010)). The rats were euthanized at 2 weeks after surgery, and whole calvaria were fixed in 4% paraformaldehyde at 4° C. for 24 hours and analyzed by μCT scanning. Details for the μCT scans are illustrated below.
For histomorphometric analysis, the specimens were decalcified with 12% EDTA for 4 weeks and embedded in paraffin. […] The mice were sacrificed on day 7, and the whole calvariae were dissected, cleaned of soft tissue, fixed in 4% paraformaldehyde at 4° C. for 24 hours, subjected to TRAP staining, and then analyzed by μCT scanning. μCT was performed with the Micro-CT Skyscan 1172 system (70 kV, 141 μA, and 38 minutes integration time; Skyscan). […] The regenerated bone volume and bone mineral content were calculated with CT Analyser version 1.14.4.1 (Bruker-microCT). […]

[6] = test system: osteogenic cells; test: Cell spreading assay on coated plates; format: cell-based, human; settings: serum-free medium, 3 hours
Source text: (§1) Plates were gently washed three times with PBS.

[7] = test system: BMMs; test: Proliferation and viability of BMMs; format: cell-based, mouse; settings: 9.1 μg/cm^2
[8] = test system: osteogenic cells, NHDFs, NHOFs, MC3T3-E1, and NIH/3T3 cells; test: Cell viability assay (water-soluble tetrazolium salt, WST); format: cell-based, human; settings: VnP-16 for 24 hours and 48 hours
Experimental: The viability of human osteogenic cells was analyzed using the EZ-Cytox cell viability assay kit (water-soluble tetrazolium salt (WST) assay; Daeillab). Osteogenic cells (3×10^3 cells/100 μL) were seeded on a 96-well microplate, adapted for 48 hours, and treated with 50 μg/mL, 100 μg/mL, or 200 μg/mL of VnP-16 at 37° C. for 24 hours or 48 hours. The WST reagent solution (10 μL) was added to each well of the 96-well microplate containing 100 μL of cells. The plate was incubated at 37° C. for 2 hours. The absorbance was measured at 450 nm using a microplate reader (BioRad).

[9] = test system: mature osteoclasts; test: Viability of mature osteoclasts (surviving osteoclasts after TRAP staining); format: cell-based, mouse; settings: 24 hours, 9.1 μg/cm^2
Experimental: The results of FIGS. 12b and 12c are expressed as mean±S.D. (n=4) ([…].)
Mature osteoclasts were cultured for 24 hours on Osteo Assay Surface plates precoated with vehicle (DMSO), SP (9.1 μg/cm^2), or VnP-16 (9.1 μg/cm^2), in the presence of M-CSF (30 ng/mL) and RANKL (100 ng/mL).

[10] = test system: human osteogenic cells; test: Cell attachment assay on coated plates; format: cell-based; settings: for cell attachment activity of osteogenic cells: substrate-coated plates, serum-free medium, 1 hour; for coating concentration at which cell attachment activity reached a maximum level: osteogenic cells, dose-response
Source text: as §1

[11] = test system: osteogenic cells; test: Cell migration assay (transwell); format: cell-based, human; settings: 24 hours
Experimental: Cell migration assays were performed with transwell migration chambers (pore size, 8 μm; Corning). […] Cells (2×10^5 cells/mL) were resuspended in DMEM containing 0.5% FBS and 0.1% BSA. This suspension (100 μL) was seeded in the upper chamber of a transwell filter. After seeding the […] (100 μL) to the upper chamber of the transwell migration chambers, the cells were allowed to migrate at 37° C. for 24 hours. Cells were then fixed with 10% formalin for 15 minutes and stained with 0.5% crystal violet. Unmigrated cells, those remaining in the upper side of the transwell filter, were removed with a cotton swab and counted under light microscopy. Cell migration was quantified by counting the number of cells that had migrated through the filter.

[12] = VnP-16-coated plates, osteogenic differentiation medium, PF-573228 1 μM, 2 weeks

Sequence of FAK (Q05397 whole entry): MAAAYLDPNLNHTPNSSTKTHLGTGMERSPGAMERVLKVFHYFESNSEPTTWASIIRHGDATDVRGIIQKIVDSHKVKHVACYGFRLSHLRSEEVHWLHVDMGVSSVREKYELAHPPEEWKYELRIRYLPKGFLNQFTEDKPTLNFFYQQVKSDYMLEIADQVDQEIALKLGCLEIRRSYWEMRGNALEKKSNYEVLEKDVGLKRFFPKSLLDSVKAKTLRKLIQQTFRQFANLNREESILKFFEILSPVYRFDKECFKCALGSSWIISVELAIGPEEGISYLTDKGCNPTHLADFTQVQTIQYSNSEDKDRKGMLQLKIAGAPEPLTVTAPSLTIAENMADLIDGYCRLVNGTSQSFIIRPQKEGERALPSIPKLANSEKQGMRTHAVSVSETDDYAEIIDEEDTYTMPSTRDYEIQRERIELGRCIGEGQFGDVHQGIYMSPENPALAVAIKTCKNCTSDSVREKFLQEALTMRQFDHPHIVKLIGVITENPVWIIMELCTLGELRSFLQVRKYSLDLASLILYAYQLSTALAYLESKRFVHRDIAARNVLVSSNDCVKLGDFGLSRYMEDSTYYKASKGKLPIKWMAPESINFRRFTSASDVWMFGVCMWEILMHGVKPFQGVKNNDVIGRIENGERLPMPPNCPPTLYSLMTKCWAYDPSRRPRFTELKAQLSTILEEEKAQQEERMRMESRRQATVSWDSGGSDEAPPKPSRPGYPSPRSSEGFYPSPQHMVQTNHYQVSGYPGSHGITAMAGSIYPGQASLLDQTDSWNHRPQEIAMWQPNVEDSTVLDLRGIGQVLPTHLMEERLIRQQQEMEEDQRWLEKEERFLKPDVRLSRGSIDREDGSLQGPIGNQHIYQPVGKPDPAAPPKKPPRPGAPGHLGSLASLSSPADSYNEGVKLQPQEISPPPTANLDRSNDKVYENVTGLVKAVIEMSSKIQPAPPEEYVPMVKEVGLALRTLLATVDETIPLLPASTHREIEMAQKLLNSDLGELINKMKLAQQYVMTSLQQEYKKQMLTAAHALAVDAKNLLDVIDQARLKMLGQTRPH
T1 sequence (P05556 21-798): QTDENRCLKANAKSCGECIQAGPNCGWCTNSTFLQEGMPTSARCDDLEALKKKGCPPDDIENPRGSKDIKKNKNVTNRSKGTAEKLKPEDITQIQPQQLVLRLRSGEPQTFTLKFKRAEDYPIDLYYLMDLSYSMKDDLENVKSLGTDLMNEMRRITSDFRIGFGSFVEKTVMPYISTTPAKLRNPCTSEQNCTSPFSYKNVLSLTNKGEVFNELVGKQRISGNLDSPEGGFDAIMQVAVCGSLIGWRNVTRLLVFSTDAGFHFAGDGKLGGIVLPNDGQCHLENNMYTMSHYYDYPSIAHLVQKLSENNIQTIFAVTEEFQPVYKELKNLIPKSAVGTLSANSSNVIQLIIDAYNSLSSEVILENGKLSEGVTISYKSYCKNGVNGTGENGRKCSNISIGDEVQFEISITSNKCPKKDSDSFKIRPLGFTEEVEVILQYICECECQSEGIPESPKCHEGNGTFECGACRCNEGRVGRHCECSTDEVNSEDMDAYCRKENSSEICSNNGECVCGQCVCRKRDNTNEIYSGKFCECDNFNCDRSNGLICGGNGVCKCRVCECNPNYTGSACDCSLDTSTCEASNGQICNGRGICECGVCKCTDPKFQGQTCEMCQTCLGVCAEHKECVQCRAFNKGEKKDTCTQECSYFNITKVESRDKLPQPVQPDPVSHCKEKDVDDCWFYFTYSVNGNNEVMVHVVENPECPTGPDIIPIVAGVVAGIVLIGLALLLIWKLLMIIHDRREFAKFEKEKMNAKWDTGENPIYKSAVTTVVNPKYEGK

[Cl][Mn][Cl] [Mn^2+, MnCl2]
cell attachment to VnP-16 after pretreatment of cells [1]: significantly enhanced

CS(=O)(=O)c1cccc(CNc2nc(Nc3ccc4c(c3)CCC(=O)N4)ncc2C(F)(F)F)c1 [PF-573228]
cell attachment to VnP-16 after pretreatment of PF-573228 [2]: significantly inhibited in a dose-dependent manner
cell growth [3]: did not affect
alkaline phosphatase (ALP) activity [3, 12]: notably weakened
calcium deposition [3, 12]: reduced

heparin
cell attachment to VnP-16 after pretreatment of cells [1]: not inhibited

biotinylated VnP-16: biotin-conjugated VnP-16 peptide used for pulldown (RVYFFKGKQYWE-NH2; also: biotinylated)
binding of β1 integrin in pulldown [4]: selectively bound

FVWRQFYKYEKG (SEQ ID NO: 23) (Scrambled peptide) [SP, scrambled peptide used as control, reference compound]
new bone formation in calvarial defects (μCT images) [5]: only limited new bone formation
cell spreading [6]: ineffective

O=C(O)CN(CCN(CC(=O)O)CC(=O)O)CC(=O)O [EDTA]
cell attachment to VnP-16 after pretreatment of cells [1]: completely inhibited

RVYFFKGKQYWE-NH2 [VnP-16, RVYFFKGKQYWE (SEQ ID NO: 17)]
cell proliferation and viability of BMMs [7]: did not affect
viability of cells or cell lines tested [8]: did not affect
viability of osteoclasts [9]: no effect

B1: rVn-FIII: recombinant human vitronectin truncation III expressed in E. coli (protein)
chain: GRTSAGTRQPQFISRDWHGVPGQVDAAMAGRIYISGMAPRPSLAKKQRFRHRNRKGYRSQRGHSRGRNQNSRRPSRATWLSLFSSEESNLGANNYDDYRMDWLVPATCEPIQSVFFFSGDKYYRVNLRTRRVDTVDPPYPRSIAQYWLGCPAPGHL
modifications: rVn-FIII
notes: recombinant human vitronectin truncation III expressed in E. coli
cell attachment activity of osteogenic cells [10]: did not adhere
cell spreading [6]: induced no cell spreading or migration
cell migration [11]: induced no cell spreading or migration

B2: rVn-FI: recombinant human vitronectin truncation I expressed in E. coli (protein)
chain: DQESCKGRCTEGFNVDKKCQCDELCSYYQSCCTDYTAECKPQVTRGDVFTMPEDEYTVYDDGEEKNNATVHEQVGGPSLTSDLQAQSKGNPEQTPVLKPEEEAPAPEVGASKPEGIDSRPETLHPGRPQP
modifications: rVn-FI
notes: recombinant human vitronectin truncation I expressed in E. coli
coating concentration at which cell attachment activity reached a maximum level [10]: about 5.7 μg/cm^2
cell attachment activity of osteogenic cells [10]: adhered; also recorded: promoted cell attachment, although to a lower extent than full-length vitronectin
cell spreading [6]: induced cell spreading and migration
cell migration [11]: induced cell spreading and migration

B3: rVn-FII: recombinant human vitronectin truncation, 173 residues, amino acids at positions 150 to 322 (protein)
chain: PAEEELCSGKPFDAFTDLKNGSLFAFRGQYCYELDEKAVRPGYPKLIRDVWGIEGPIDAAFTRINCQGKTYLFKGSQYWRFEDGVLDPDYPRNISDGFDGIPDNVDAALALPAHSYSGRERVYFFKGKQYWEYQFQHQPSQEECEGSSLSAVFEHFAMMQRDSWEDIFELLFW
modifications: rVn-FII
coating concentration at which cell attachment activity reached a maximum level [10]: about 5.7 μg/cm^2
cell attachment activity of osteogenic cells [10]: lower cell attachment activity compared to that of rVn-FI; also recorded: adhered; also recorded: promoted cell attachment, although to a lower extent than full-length vitronectin; also recorded: significant cell attachment activity
cell spreading [6]: induced no cell spreading or migration
cell migration [11]: induced no cell spreading or migration

B4: human plasma vitronectin: Human vitronectin purchased from Millipore (protein, UniProt P04004 20-478, looked up)
Vitronectin: DQESCKGRCTEGFNVDKKCQCDELCSYYQSCCTDYTAECKPQVTRGDVFTMPEDEYTVYDDGEEKNNATVHEQVGGPSLTSDLQAQSKGNPEQTPVLKPEEEAPAPEVGASKPEGIDSRPETLHPGRPQPPAEEELCSGKPFDAFTDLKNGSLFAFRGQYCYELDEKAVRPGYPKLIRDVWGIEGPIDAAFTRINCQGKTYLFKGSQYWRFEDGVLDPDYPRNISDGFDGIPDNVDAALALPAHSYSGRERVYFFKGKQYWEYQFQHQPSQEECEGSSLSAVFEHFAMMQRDSWEDIFELLFWGRTSAGTRQPQFISRDWHGVPGQVDAAMAGRIYISGMAPRPSLAKKQRFRHRNRKGYRSQRGHSRGRNQNSRRPSRATWLSLFSSEESNLGANNYDDYRMDWLVPATCEPIQSVFFFSGDKYYRVNLRTRRVDTVDPPYPRSIAQYWLGCPAPGHL
cell attachment activity of osteogenic cells [10]: strongly promoted
cell spreading [6]: strongly promoted
cell migration [11]: strongly promoted
